Patent publication US20220041738A1 (SAITAMA MEDICAL UNIVERSITY, published 2022)

Assays:
Test in all cases: immunofluorescence (legend of FIG. 4)
[1] = biological target: T1, human ALK2-L196P on cells (human, UniProt Q04771 21-509)
T1 sequence: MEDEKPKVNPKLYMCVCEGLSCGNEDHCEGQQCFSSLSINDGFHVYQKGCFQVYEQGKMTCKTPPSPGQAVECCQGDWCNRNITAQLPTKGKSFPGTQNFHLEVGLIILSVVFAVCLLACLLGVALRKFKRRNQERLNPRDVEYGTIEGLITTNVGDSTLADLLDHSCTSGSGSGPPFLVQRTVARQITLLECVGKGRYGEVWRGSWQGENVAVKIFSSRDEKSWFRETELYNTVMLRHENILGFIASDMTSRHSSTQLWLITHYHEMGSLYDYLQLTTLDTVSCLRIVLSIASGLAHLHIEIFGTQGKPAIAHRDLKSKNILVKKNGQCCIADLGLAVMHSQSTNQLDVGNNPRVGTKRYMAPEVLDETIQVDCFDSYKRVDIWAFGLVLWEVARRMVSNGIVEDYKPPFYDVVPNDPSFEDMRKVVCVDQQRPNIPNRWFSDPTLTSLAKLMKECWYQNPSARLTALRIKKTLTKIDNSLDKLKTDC
Description: (§1) Mouse C2C12 cells were seeded into a 96-well plate (Greiner Bio-One) at 0.5×10³ cells/well, and cultured in 15% FBS-containing DMEM medium overnight under the conditions of 5% CO₂ at 37° C. On the following day, the C2C12 cells were transfected with each of a wild-type human ALK2 cDNA integrated into pcDEF3; pcDEF3/human ALK2-L196P, pcDEF3/human ALK2-P197_F198delinsL, pcDEF3/human ALK2-R202I, pcDEF3/human ALK2-R206H, pcDEF3/human ALK2-Q207E, pcDEF3/human ALK2-R258S, pcDEF3/human ALK2-G325A, pcDEF3/human ALK2-G328E, pcDEF3/human ALK2-G328R, pcDEF3/human ALK2-G328W, pcDEF3/human ALK2-G356D, and pcDEF3/human ALK2-R375P, which are variants identified in FOP; and pcDEF3 as a control, using Lipofectamine 2000 (Invitrogen), and further cultured overnight.
(§2) The C2C12 cells were fixed with 10% neutral formalin (Nacalai Tesque, Japan) for 20 minutes at room temperature, and then blocked with 10% goat normal serum for 30 minutes. After the blocking agent was removed, purified IgG diluted to 10 μg/mL with the blocking agent was added, and the cells were left for 1 hour at room temperature. After the cells were washed with PBS three times, Goat Alexa 594-conjugated anti-rat IgG (Invitrogen) diluted to 1:1000 with the blocking agent was added, and the cells were left for 1 hour at room temperature. After the cells were washed with PBS three times, the cells were fixed with 10% neutral formalin for 15 minutes at room temperature, and nuclear-stained with DAPI (LifeTechnologies). Fluorescent signals were analyzed with a fluorescence microscope BZ-9000 (Keyence).

[2] = biological target: T2, human ALK2-G325A on cells (human, UniProt Q04771 21-509)
T2 sequence: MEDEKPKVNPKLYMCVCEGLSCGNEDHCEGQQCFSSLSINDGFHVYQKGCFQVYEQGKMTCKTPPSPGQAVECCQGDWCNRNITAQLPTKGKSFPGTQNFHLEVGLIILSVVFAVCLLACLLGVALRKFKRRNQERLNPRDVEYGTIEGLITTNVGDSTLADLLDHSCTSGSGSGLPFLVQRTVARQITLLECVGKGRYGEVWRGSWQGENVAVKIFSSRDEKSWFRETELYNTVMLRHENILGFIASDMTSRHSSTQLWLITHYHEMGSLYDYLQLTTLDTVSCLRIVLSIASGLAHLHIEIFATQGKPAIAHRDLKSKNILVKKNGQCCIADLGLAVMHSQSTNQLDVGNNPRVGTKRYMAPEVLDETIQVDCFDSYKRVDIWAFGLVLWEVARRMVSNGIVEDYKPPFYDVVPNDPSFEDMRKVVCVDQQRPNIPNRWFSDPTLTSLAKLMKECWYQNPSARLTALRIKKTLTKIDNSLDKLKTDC
Description: as §1, §2

[3] = biological target: T3, human ALK2-G328E on cells (human, UniProt Q04771 21-509)
T3 sequence: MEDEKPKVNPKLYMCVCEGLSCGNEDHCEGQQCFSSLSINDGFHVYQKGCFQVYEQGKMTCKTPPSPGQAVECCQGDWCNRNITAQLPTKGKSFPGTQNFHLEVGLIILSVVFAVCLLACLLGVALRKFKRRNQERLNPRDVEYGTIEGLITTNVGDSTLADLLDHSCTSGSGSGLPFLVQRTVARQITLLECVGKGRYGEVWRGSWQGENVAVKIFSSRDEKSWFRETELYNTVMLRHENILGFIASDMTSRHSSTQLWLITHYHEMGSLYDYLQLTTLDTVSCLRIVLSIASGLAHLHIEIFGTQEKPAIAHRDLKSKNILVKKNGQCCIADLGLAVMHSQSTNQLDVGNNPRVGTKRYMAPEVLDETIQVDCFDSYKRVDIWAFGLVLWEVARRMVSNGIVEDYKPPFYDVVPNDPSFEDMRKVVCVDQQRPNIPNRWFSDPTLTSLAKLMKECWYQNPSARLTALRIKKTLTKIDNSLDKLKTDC
Description: as §1, §2

[4] = biological target: T4, human ALK2-G328W on cells (human, UniProt Q04771 21-509)
T4 sequence: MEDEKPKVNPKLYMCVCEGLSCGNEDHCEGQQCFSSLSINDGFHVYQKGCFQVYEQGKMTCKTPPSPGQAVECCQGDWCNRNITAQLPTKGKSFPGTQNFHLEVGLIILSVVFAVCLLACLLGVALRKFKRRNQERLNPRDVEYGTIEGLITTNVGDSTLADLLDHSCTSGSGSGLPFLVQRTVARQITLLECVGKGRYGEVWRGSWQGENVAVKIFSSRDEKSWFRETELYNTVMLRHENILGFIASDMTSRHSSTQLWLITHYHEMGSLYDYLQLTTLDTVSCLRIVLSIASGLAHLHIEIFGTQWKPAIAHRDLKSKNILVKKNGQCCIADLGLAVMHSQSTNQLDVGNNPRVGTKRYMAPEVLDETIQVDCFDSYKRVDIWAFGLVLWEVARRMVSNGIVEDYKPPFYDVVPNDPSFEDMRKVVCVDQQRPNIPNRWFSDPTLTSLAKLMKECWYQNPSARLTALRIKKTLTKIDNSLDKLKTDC
Description: as §1, §2

Measured: binding result

B1: rat anti-ALK2 monoclonal antibody A2-11E (antibody, V domains shown)
VH: EVQLVETGGGLVQPGRSLKLSCVASGFTFSNYYMYWIRQAPGKGLEWISSINTDGGSTYYPDSVKGRFAISRDNAENTVYLQMNSLRSEDTATYYCAKSTPNIPLAYWGQGTLVTVSS
VL: DIQMTQSPSLLSASVGDRVTLSCKASQNIYKYLNWFQQKLGEAPKLLIYYSNSLQTGIPSRFSGSGSGTDFTLTISSLQPEDVAIYFCFQYSSGPTFGPGTKLELKR
notes: Rat monoclonal IgG from a hybridoma; also called 11E2
binds: all assays above

B2: rat anti-ALK2 monoclonal antibody A2-15A (antibody, V domains shown)
VH: EVQLVESGGGLVQPGRSLKLSCAASGFTFSHYYMAWVRQAPTKGLEWVASITNSGGSINYRDSVKGRFTISRDNAKSTLYLQMDSLRSEDTATYYCTREGGENYGGYPPFAYWGQGTLVTVSS
VL: DIVLTQSPALAVSLGQRATISCRANQGVSLSRYNLMHWYQQKPGQKPKLLIYRSSNLASGIPARFSGSGSGTDFTLTINPVQADDIATYYCQQSRESPFTFGAGTKLELKR
notes: Rat monoclonal IgG from a hybridoma; also called 15A6
binds: all assays above
